# ± gives the standard deviation of the averaged measurements.
# Test system: Saccharomyces cerevisiae
# Assay: protein stability index of tFT-peptide fusion (C-terminal peptide) (PSI (0-1 scale)); higher = more stable (slower turnover)
# Settings: genetic background: wild type; temperature: 30 C
# 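Also: PSI is a weighted mean of sequencing reads over stability bins, variants kept only with over 10 reads, mCherry proximal and sfGFP distal, peptide attached via GGGS linker.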
row,Sequence,protein stability index
1,PPCFPHPLPPPR,0.744 ± 0.022
2,PPCPFPTLPVTH,0.73 ± 0.013
3,PPCTSTTQRANP,0.696 ± 0.073
4,PPDLPTRSPDNP,0.658 ± 0.04
5,PPDSSPLGGEVG,0.6775 ± 0.0058
6,PPFAPAPALSAS,0.758 ± 0.11
7,PPFFFIDMGASN,0.697 ± 0.054
8,PPFFPLRPSLVL,0.656 ± 0.051
9,PPFLRSALRSSS,0.672 ± 0.015
10,PPFLYVLVSSIL,0.54 ± 0.15
11,PPFPHPSRLPPA,0.726 ± 0.028
12,PPFPPAPPRGPA,0.659 ± 0.043
13,PPGLPPGPARPP,0.635 ± 0.036
14,PPGPPPSSPPPP,0.73 ± 0.024
15,PPGSPPSLHLPP,0.734 ± 0.021
16,PPHCPLVLPSLS,0.67 ± 0.044
17,PPHHPPPTLFPA,0.698 ± 0.076
18,PPHNPTPSPTTP,0.719 ± 0.11
19,PPHPLSLSLRPP,0.634 ± 0.034
20,PPHPPLPPPSPS,0.704 ± 0.056
21,PPHPPNFSSPPP,0.656 ± 0.023
22,PPHPPPPAPLPS,0.73 ± 0.029
23,PPHPPPPSPTPP,0.656 ± 0.019

row,Sequence,protein stability index
1,PPHPVTLSPART,0.614 ± 0.04
2,PPHTHTQRPSPT,0.715 ± 0.027
3,PPILLPPPDASH,0.702 ± 0.025
4,PPINPTEPPITI,0.696 ± 0.092
5,PPIPNPPPHPLP,0.657 ± 0.057
6,PPLCRSFPPASL,0.791 ± 0.061
7,PPLFTAAPRRWS,0.752 ± 0.093
8,PPLLDASPAPIL,0.689 ± 0.024
9,PPLLLTSLMLLP,0.655 ± 0.034
10,PPLLPPVSPPPP,0.684 ± 0.061
11,PPLLQPPPPRLL,0.736 ± 0.048
12,PPLPATHLPPPP,0.802 ± 0.058
13,PPLPLLPPLPPP,0.644 ± 0.034
14,PPLPLPSPPTPH,0.654 ± 0.021
15,PPLPLTSPPPSP,0.631 ± 0.024
16,PPLPPAPTPALP,0.684 ± 0.029
17,PPLPPPFSPLPP,0.686 ± 0.025
18,PPLPPPLLPFSI,0.747 ± 0.019
19,PPLPPPPPAPAP,0.634 ± 0.016
20,PPLPPPPRSPPS,0.7565 ± 0.0021
21,PPLPPPSPESVS,0.709 ± 0.056
22,PPLPPSPPRSPP,0.552 ± 0.029
23,PPLPSPPAPPAP,0.655 ± 0.0086

row,Sequence,protein stability index
1,PPLPSPPQPYSA,0.639 ± 0.013
2,PPLPSSLPPISF,0.703 ± 0.015
3,PPLRPFLLPPPS,0.722 ± 0.077
4,PPLRPHHPLYHS,0.687 ± 0.011
5,PPLSLLPSSSPH,0.664 ± 0.0081
6,PPLSPTLTIPPP,0.698 ± 0.079
7,PPLSSSALPARS,0.692 ± 0.011
8,PPLTPPTPVPPG,0.6937 ± 0.0056
9,PPLTVRPFPFRV,0.662 ± 0.015
10,PPLVSPPPPLPP,0.62 ± 0.015
11,PPNPFPALRSSP,0.7324 ± 0.0011
12,PPPAPPGPRYRR,0.696 ± 0.025
13,PPPAPPHPPLRH,0.682 ± 0.027
14,PPPAPPLILVLP,0.539 ± 0.0037
15,PPPAPPLSPPPH,0.653 ± 0.038
16,PPPAPPPHRDLS,0.709 ± 0.057
17,PPPAPPPPLRLL,0.721 ± 0.046
18,PPPARPAPLSPP,0.692 ± 0.08
19,PPPASSPPPSAS,0.626 ± 0.062
20,PPPCPHLAPRLP,0.714 ± 0.071
21,PPPCPHRDGTSP,0.664 ± 0.05
22,PPPCRSLPLLPP,0.6546 ± 0.005
23,PPPDTPSPPSSL,0.668 ± 0.026

row,Sequence,protein stability index
1,PPPFRPPPRLYS,0.693 ± 0.025
2,PPPFRTPPSRRP,0.739 ± 0.057
3,PPPGPSPLAAPP,0.654 ± 0.056
4,PPPGRPDAMTPP,0.676 ± 0.022
5,PPPGSPLPPPRA,0.702 ± 0.036
6,PPPILFTEPPLA,0.738 ± 0.0049
7,PPPIPLSPPLVL,0.72 ± 0.014
8,PPPIPPFRLSRS,0.69 ± 0.061
9,PPPLLPPTPLPP,0.619 ± 0.0069
10,PPPLPLPPPPPP,0.58 ± 0.048
11,PPPLPPPAPPPR,0.663 ± 0.014
12,PPPLPPPLPLCS,0.675 ± 0.023
13,PPPLPPPYPPPP,0.627 ± 0.016
14,PPPLPSPPRPPS,0.734 ± 0.045
15,PPPLPTRPPPSA,0.649 ± 0.0082
16,PPPLRTHTGPPP,0.678 ± 0.0069
17,PPPLSPPLPFFV,0.666 ± 0.036
18,PPPLSSPPPRPL,0.709 ± 0.058
19,PPPLTPPPPPPR,0.725 ± 0.014
20,PPPNPHAASTHH,0.654 ± 0.0077
21,PPPPAFPPPLSP,0.716 ± 0.067
22,PPPPAHPPPRSP,0.741 ± 0.035
23,PPPPANVSHHAP,0.593 ± 0.073

row,Sequence,protein stability index
1,PPPPAPPPPVPS,0.69246 ± 0.00027
2,PPPPAPSPPPSP,0.717 ± 0.0094
3,PPPPASARPSLP,0.477 ± 0.069
4,PPPPFLLPPLLD,0.707 ± 0.012
5,PPPPHFLVPLSP,0.695 ± 0.021
6,PPPPLDSFPFIT,0.701 ± 0.043
7,PPPPLLPPPSPL,0.7 ± 0.032
8,PPPPLLPTPRPF,0.682 ± 0.039
9,PPPPLPPPPSPA,0.7911 ± 0.0045
10,PPPPLPPPSHYP,0.728 ± 0.033
11,PPPPLPRAPFSP,0.661 ± 0.0092
12,PPPPLPSPAPRP,0.735 ± 0.032
13,PPPPLSPPPEPR,0.659 ± 0.014
14,PPPPNPPRPSSR,0.758 ± 0.026
15,PPPPPALPSPPP,0.631 ± 0.025
16,PPPPPAPPPTPL,0.556 ± 0.011
17,PPPPPATRPSSL,0.674 ± 0.018
18,PPPPPFLPPPRL,0.749 ± 0.011
19,PPPPPGLAPPSP,0.681 ± 0.011
20,PPPPPHRTPHPS,0.727 ± 0.096
21,PPPPPLPLDYPP,0.638 ± 0.025
22,PPPPPLPPRSCL,0.703 ± 0.013
23,PPPPPLSPHSPP,0.699 ± 0.023

row,Sequence,protein stability index
1,PPPPPPALPEYQ,0.708 ± 0.01
2,PPPPPPLAAPPS,0.7098 ± 0.0053
3,PPPPPPLPHSPP,0.647 ± 0.095
4,PPPPPPLPLLSI,0.668 ± 0.038
5,PPPPPPLSSPFP,0.643 ± 0.032
6,PPPPPPNPLPLP,0.68 ± 0.032
7,PPPPPPPHSPLS,0.685 ± 0.04
8,PPPPPPPLPLLP,0.667 ± 0.036
9,PPPPPPPPLAPP,0.694 ± 0.022
10,PPPPPPPPPPRA,0.723 ± 0.035
11,PPPPPPPPPTFL,0.708 ± 0.017
12,PPPPPPPPSLSP,0.591 ± 0.047
13,PPPPPPPPTTVL,0.709 ± 0.023
14,PPPPPPRPPLRP,0.727 ± 0.012
15,PPPPPPVHPSSP,0.728 ± 0.0081
16,PPPPPPVSPAAL,0.69 ± 0.018
17,PPPPPRLTPPRL,0.722 ± 0.09
18,PPPPPRPPPSSP,0.746 ± 0.058
19,PPPPPRPSPHPP,0.62 ± 0.058
20,PPPPPSPSASSP,0.491 ± 0.11
21,PPPPPSPSPCLA,0.767 ± 0.044
22,PPPPPTAPPPSR,0.733 ± 0.055
23,PPPPPTRPPTRV,0.68 ± 0.079

row,Sequence,protein stability index
1,PPPPRAPVPLPV,0.575 ± 0.022
2,PPPPRLPLDPPL,0.658 ± 0.041
3,PPPPSPPATPAP,0.652 ± 0.015
4,PPPPSPPLHRPP,0.738 ± 0.016
5,PPPPSPPPPSTT,0.751 ± 0.08
6,PPPPTLPPPLVP,0.726 ± 0.12
7,PPPPTSFSPGTL,0.649 ± 0.043
8,PPPPTSPTSPEL,0.692 ± 0.051
9,PPPRHVPLPPLT,0.71 ± 0.11
10,PPPRLDTGAAQP,0.665 ± 0.0097
11,PPPRLVPSPPVP,0.7 ± 0.0039
12,PPPRPPGPPLPH,0.702 ± 0.075
13,PPPRPPPAPLAS,0.705 ± 0.027
14,PPPRVPPPVPPL,0.722 ± 0.047
15,PPPSDPLPPSVR,0.7044 ± 0.0067
16,PPPSPAQIPRPS,0.722 ± 0.19
17,PPPSPPHFTSPP,0.683 ± 0.006
18,PPPSRSLPPTPP,0.746 ± 0.084
19,PPPSSSGHPLHY,0.714 ± 0.05
20,PPPSSSLAAPPT,0.677 ± 0.026
21,PPPSSSSPPPPR,0.704 ± 0.039
22,PPPSYSPSLSLL,0.63132 ± 0.00041

# From the supplement of paper PMC10724198
